{"source": "paper doi:10.1101/093708", "about": "(bioRxiv, 2016)", "target": "the molecule itself", "assay": "cryo-EM structure; EcFtsZ 0.5 mg/mL in 50 mM HEPES-KOH, 100 mM potassium acetate, 5 mM magnesium acetate, pH 7.7, 20 °C, 0.1 mM GMPCPP; helical reconstruction of filaments in RELION"}
{"protein": "Escherichia coli FtsZ, full length, untagged, wildtype (natural protein, E. coli, UniProt P0A9A6 1-383, looked up, also called EcFtsZ; E. coli FtsZ; source: E. coli C41 (DE3), purified (GTP and calcium-induced precipitation, Mono Q)) MFEPMELTNDAVIKVIGVGGGGGNAVEHMVRERIEGVEFFAVNTDAQALRKTAVGQTIQIGSGITKGLGAGANPEVGRNAADEDRDALRAALEGADMVFIAAGMGGGTGTGAAPVVAEVAKDLGILTVAVVTKPFNFEGKKRMAFAEQGITELSKHVDSLITIPNDKLLKVLGRGISLLDAFGAANDVLKGAVQGIAELITRPGLMNVDFADVRTVMSEMGYAMMGSGVASGEDRAEEAAEMAISSPLLEDIDLSGARGVLVNITAGFDLRLDEFETVGNTIRAFASDNATVVIGTSLDPDMNDELRVTVVATGIGMDKRPEITLVTNKQVQQPVMDRYQQHGMAPLTQEQKPVAKVVNDNAPQTAKEPDYLDIPAFLRKQAD", "values": [{"measurement": "binding result", "result": "binds"}]}
